# Measured values: US20210187106A1 (AstraZeneca / MedImmune, published 2021)
# T1: recombinant human gp130 (human, UniProt P40189 23-619, limits assumed)
# T1 sequence (looked up): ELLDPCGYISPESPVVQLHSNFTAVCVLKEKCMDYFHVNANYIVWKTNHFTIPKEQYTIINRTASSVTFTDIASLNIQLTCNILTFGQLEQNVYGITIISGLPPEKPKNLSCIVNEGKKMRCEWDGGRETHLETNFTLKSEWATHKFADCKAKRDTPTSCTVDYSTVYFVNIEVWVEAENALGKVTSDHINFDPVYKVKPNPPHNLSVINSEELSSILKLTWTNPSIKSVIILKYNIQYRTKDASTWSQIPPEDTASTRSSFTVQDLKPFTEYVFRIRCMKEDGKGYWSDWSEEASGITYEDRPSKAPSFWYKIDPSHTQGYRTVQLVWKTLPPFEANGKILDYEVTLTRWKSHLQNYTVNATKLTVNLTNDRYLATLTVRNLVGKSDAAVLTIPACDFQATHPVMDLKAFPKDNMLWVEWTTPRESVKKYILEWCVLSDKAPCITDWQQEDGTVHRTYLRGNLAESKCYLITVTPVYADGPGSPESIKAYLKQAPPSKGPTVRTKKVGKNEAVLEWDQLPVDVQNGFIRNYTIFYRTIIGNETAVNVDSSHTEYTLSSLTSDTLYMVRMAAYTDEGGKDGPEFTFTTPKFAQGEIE
# T2: recombinant human LIF receptor (hLIFR) (human, UniProt P42702 45-833, limits assumed)
# T2 sequence (looked up): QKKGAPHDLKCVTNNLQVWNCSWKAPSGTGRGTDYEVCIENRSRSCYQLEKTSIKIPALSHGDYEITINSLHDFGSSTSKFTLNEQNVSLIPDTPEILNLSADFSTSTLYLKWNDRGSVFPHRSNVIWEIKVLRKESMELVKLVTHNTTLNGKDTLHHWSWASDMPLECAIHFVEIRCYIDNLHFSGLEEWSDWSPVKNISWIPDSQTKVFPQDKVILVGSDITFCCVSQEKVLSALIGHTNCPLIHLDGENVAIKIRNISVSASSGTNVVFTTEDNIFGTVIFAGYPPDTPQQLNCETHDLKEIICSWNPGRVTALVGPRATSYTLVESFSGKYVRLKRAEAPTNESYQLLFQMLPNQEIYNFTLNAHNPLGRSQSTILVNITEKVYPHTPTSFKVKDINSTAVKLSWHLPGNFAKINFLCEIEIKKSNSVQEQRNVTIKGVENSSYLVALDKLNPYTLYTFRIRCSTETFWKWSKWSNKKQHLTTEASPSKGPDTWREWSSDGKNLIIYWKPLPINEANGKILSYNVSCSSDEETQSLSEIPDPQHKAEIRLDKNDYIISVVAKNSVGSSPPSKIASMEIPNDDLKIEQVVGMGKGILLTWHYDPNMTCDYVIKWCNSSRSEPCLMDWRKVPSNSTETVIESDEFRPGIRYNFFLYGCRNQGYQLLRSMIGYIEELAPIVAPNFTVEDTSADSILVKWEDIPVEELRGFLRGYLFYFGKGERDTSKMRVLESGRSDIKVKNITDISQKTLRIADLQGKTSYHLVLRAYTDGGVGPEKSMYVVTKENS
# B1: human Leukemia Inhibitory Factor (LIF), expression source not stated (ligand)
# chain: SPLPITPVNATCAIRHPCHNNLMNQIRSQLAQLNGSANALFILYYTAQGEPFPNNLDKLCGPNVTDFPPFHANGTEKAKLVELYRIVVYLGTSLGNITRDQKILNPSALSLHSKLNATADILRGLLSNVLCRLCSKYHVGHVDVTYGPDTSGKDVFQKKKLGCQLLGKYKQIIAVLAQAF
# notes: also called hLIF; human LIF
# B2: h5D8 (humanized 5D8, H2L2 clone) (antibody, V domains shown)
# VH: QVQLQESGGGLVKPGGSLRLSCAASGFTFSHAWMHWVRQAPGKGLEWVGQIKAKSDDYATYYAESVKGRFTISRDDSKNTLYLQMNSLKTEDTAVYYCTCWEWDLDFWGQGTMVTVSS
# VL: DIVMTQTPLSSPVTLGQPASISCRSSQSLLDSDGHTYLNWLQQRPGQPPRLLIYSVSNLESGVPDRFSGSGAGTDFTLKISRVEAEDVGVYYCMQATHAPPYTFGQGTKLEIK
# notes: Humanized IgG tested as a bivalent antibody; Only VH and VL are tied to h5D8 by name; also called G (H2L2); H5D8-1 IgG
# Tests used:
# recombinant human gp130 = target: T1, recombinant human gp130; test: ELISA, LIF pre-incubated with B09 and added to a plate coated with recombinant human gp130; the antibody part of the complex detected with peroxidase anti-rat IgG
# [1] = target: B1; test: cell-based or functional assay
# [2] = target: T2, recombinant human LIF receptor (hLIFR); test: Octet RED96 control experiment, h5D8 captured on AHC biosensors
# From the text: Subsequently, the biosensors were dipped in different concentrations of LIFR.
# human IL-6 (E. coli) = target: T3, human IL-6 (E. coli) (human, UniProt P05231 30-212, limits assumed); test: BLI (Octet), h5D8 amine-coupled to AR2G biosensors, cytokine as analyte; table legend: ND = no binding
# T3 construct: also called huIL-6 (E. coli)
# T3 sequence (P05231 30-212 limits assumed): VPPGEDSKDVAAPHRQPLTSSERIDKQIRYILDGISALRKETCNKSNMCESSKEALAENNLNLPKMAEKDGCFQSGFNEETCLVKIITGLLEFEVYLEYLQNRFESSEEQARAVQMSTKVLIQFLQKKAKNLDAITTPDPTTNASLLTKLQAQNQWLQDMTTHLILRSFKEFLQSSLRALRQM
# Method: Kinetics experiments were then performed with the following Dip and Read steps at 30° C., 1000rpm: vi) 60 seconds Baseline in 1× kinetics buffer; vii) 180 seconds Association of appropriate serial dilutions of a cytokine in 1× kinetics buffer; viii) 300 seconds Dissociation in 1× kinetics buffer; ix) Three Regeneration/Neutralization cycles alternating between 10 mM glycine pH 2.0 and 1× kinetics buffer respectively (5 seconds in each for 3 cycles). Following regeneration, the biosensors were reused for subsequent binding analyses.
Binder,binding result (recombinant human gp130),"IC50 for biological inhibition (pSTAT3, MSD assay) under serum starved conditions in U-251 cells [1] [picomolar]",binding result [2],binding result (human IL-6 (E. coli))
B1,binds,–,–,–
B2,–,490,no binding,no binding
